Results on eight molecules are retold here after patent US20100104555A1 (Scripps Research, published 2010).

What is called EC50 is the concentration needed to bring the measured effect to its halfway point. The IC50 is the concentration needed to halve the response being measured. The low end stands for inhibition by little substance, the high end for a need for much substance.

B1: E2456-645 (other)
chain: LASCRRLTDFAQGWGPISYANGSGLDERPYCWHYPPRPCGIVPAKSVCGPVYCFTPSPVVVGTTDRSGAPTYSWGANDTDVFVLNNTRPPLGNWFGCTWMNSTGFTKVCGAPPCVIGGVGNNTLLCPTDCFRKHPEATYSRCGSGPWITPRCMVDYPYRLWHYPCTINYTIFKVRMYVGGVEHRLEAACNLEDYKDDDDK
B2: maltose binding protein fused-large extracellular loop of CD81 (receptor)
chain: FVNKDQIAKDVKQFYDQALQQAVVDDDANNAKAVVKTFHETLDCCGSSTLTALTTSVLKNNLCPSGSNIISNLFKEDCHQKIDDLFSGK
notes: also called CD81-LEL; MBP-fused CD81-LEL
B3: E2492-645 (other)
chain: RPCGIVPAKSVCGPVYCFTPSPVVVGTTDRSGAPTYSWGANDTDVFVLNNTRPPLGNWFGCTWMNSTGFTKVCGAPPCVIGGVGNNTLLCPTDCFRKHPEATYSRCGSGPWITPRCMVDYPYRLWHYPCTINYTIFKVRMYVGGVEHRLEAACNLEDYKDDDDK
B5: E2412-611 (other)
chain: QLINTNGSWHINSTALNCNESLNTGWLAGLFYQHKFNSSGCPERLASCRRLTDFAQGWGPISYANGSGLDERPYCWHYPPRPCGIVPAKSVCGPVYCFTPSPVVVGTTDRSGAPTYSWGANDTDVFVLNNTRPPLGNWFGCTWMNSTGFTKVCGAPPCVIGGVGNNTLLCPTDCFRKHPEATYSRCGSGPWITPRCMVDYLEDYKDDDDK

Assay [1] concerns the target B2. The assay can be described thus: capture ELISA, coated CD81-LEL, 293T supernatant.
The target in assay [2] is T1, E2412-574 (hepatitis C virus isolate H77, UniProt P27958 412-574). The assay can be described thus: capture ELISA, coated CD81-LEL, 293T supernatant. In general terms: ELISA stands for enzyme-linked immunosorbent assay.
In assay [3] the target is T2, E2412-589 (hepatitis C virus isolate H77, UniProt P27958 412-588). The assay can be described thus: capture ELISA, coated CD81-LEL, 293T supernatant.
For the assay “E2412-611”, the target named is B5. Put plainly: capture ELISA, coated mAb, 293T supernatant.
Assay [4] has as its target T1, E2412-574. The assay can be described thus: capture ELISA, coated mAb, 293T supernatant.
For assay [5], the target named is T2, E2412-589. Put plainly: capture ELISA, coated mAb, 293T supernatant.
The target in the assay “E2456-645” is B1. The assay can be described thus: capture ELISA, coated mAb, 293T supernatant.
The assay “E2492-645” has as its target B3. The assay can be described thus: capture ELISA, coated mAb, 293T supernatant.
The target in assay [6] is T3, E1E2 of HCV isolate H77 (hepatitis C virus genotype 1a, isolate …, UniProt P27958 192-383; P27958 384-746). Put plainly: ELISA on lectin-captured E1E2; apparent affinity = half-maximal binding.
In assay [7] the target is vaccinia-expressed E1E2 (isolate HCV-1) (hepatitis C virus genotype 1a, isolate …, UniProt P26664 192-383; P26664 384-746). The assay is described as above.
The target in assay [8] is T3, E1E2 of HCV isolate H77. The assay can be described thus: ELISA, mAb inhibits E1E2 (H77) binding to coated CD81-LEL.
In assay [9] the target is T3, E1E2 of HCV isolate H77. The assay can be described thus: cell-based or functional assay.
Assay [10] addresses B2. The assay can be described thus: capture ELISA, coated CD81-LEL captures Flag-tagged E2 mutant.

Bounds are passed on as bounds.

On to B1, for which, in assay [1], the binding result was “no binding”.

On to B2, for which the binding result with E2412-574 [2] and in the assay with E2412-589 [3] was “no binding” in each case.

In the case of B3, the binding result in [1] is reported as “no binding”.

B4: MAb AR3C (antibody, V domains shown)
VH: LEQSGAEVKKPGSSVKVSCETSGGTLDNYALNWVRQAPGQGLEWIGGVVPLFGTTRNAQKFQGRVTISDDKSTGTGHMELRSLRSEDTAVYYCVRSVTPRYCGGGFCYGEFDYWGQGTLVTVSS
VL: ELTQSPATLSVSPGERATLSCRASQSVSSNLAWYQQKPGQAPRLLIYGASTRATGIPARFSGSGSGTDFTLTVSRLEPEDSAVYFCQQYRSPLTFGGGTKVEIKR
notes: also called IgG1 AR3C
On to B4, for which the binding result with E2412-611, with E2412-574 [4], with E2412-589 [5], in the assay with E2456-645 and in the assay with E2492-645 was “no binding” throughout. Besides, the EC50 is 2.3 nM in the assay with E1E2 of HCV isolate H77 [6] and 1.4 nM in [7]. In the assay with E1E2 of HCV isolate H77 [8], this molecule registered an IC50 of 2 nM. Also, the “Neutralizing activity (IC50), HCVpp” value with E1E2 of HCV isolate H77 [9] was 1 µg/mL.

Consider B5, for which the binding result in assay [1] is recorded as “no binding”.

B6: E2ΔN9 (other)
chain: QLINTNGSWHINSTALNCNESLNTGWLAGLFYQHKFNSSGCPERLASCRRLTDFAQGWGPISYANGSGLDERPYCWHYPPRPCGIVPAKSVCGPVYCFTPSPVVVGTTDRSGAPTYSWGANDTDVFVLNNTRPPLGNWFGCTWMNSTGFTKVCGAPPCGSSGCPTDCFRKHPEATYSRCGSGPWITPRCMVDYPYRLWHYPCTINYTIFKVRMYVGGVEHRLEAACNLEDYKDDDDK
With B6, in [10], the binding result is recorded as “binds”.

B7: MAb AR1A (antibody, V domains shown)
VH: LEQSGAEVKKPGSSVKVSCRASGSPYSSYTITWVRQAPGQGLEWMGGIILMTGKANYAQKFQGRVTITADRATATAYMEMSSLTSDDTAIYYCARDPYVYAGDDVRSLSRWGQGTPVIVSS
VL: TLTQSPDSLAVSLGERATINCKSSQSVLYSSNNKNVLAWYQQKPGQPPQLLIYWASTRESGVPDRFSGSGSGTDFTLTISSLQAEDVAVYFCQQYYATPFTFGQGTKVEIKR
notes: also called IgG1 AR1A
For the molecule B7, the results for the EC50 (with E1E2 of HCV isolate H77 [6]; in [7]) were 3.8 nM and 2.6 nM, respectively. This molecule also yielded an IC50 in the assay with E1E2 of HCV isolate H77 [8] of 5.7 nM. Besides, in the assay with E1E2 of HCV isolate H77 [9], the “Neutralizing activity (IC50), HCVpp” value was over 50 µg/mL.

B8: E2ΔN5N9 (other)
chain: QLINTNGSWHINSTALNCNESLNTGWLAGLFYQHKFNSSGCPERLASCGSSGCWHYPPRPCGIVPAKSVCGPVYCFTPSPVVVGTTDRSGAPTYSWGANDTDVFVLNNTRPPLGNWFGCTWMNSTGFTKVCGAPPCGSSGCPTDCFRKHPEATYSRCGSGPWITPRCMVDYPYRLWHYPCTINYTIFKVRMYVGGVEHRLEAACNLEDYKDDDDK
As for B8, in [10], the binding result is “binds”.
